± gives the standard deviation of the averaged measurements.
System: ATP
Test: switch fluorescence ratio, 500 uM ATP over buffer (Cy3 cluster intensity, sum of 5 cycles each) (fold (ratio)); higher = stronger signal-on switching upon ATP binding; sequences stand for … in TCGTCGGCAGCGTCAGATGTGTATAAGAGACAGTTTTTTTTTTTTTTTTTTTTTTTTT…TC
Details: aptamer strand: ATP DNA aptamer (quencher-CACCTGGGGGAGTATTGCGGAGGAAGG + anchor), 100 nM annealed; ATP concentration: 500 uM
How it was run: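 Clusters carrying Cy3-labelled switching strands on a modified Illumina MiSeq flow-cell were annealed to 100 nM quencher-labelled ATP aptamer and imaged in selection buffer. They were imaged again after 15 min with 500 uM ATP at 22 °C, over five buffer/ATP cycles with NaOH stripping and re-annealing in between. For each cluster, the fluorescence ratio is the summed Cy3 intensity of the target cycles divided by that of the buffer cycles, averaged per switch-domain sequence. Clusters outside 100-1000 RFU were left out.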
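Also: ATP exposure 15 min at 22 °C before imaging.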

Sequence	switch fluorescence ratio
GTTGATCCGA	0.971 ± 0.013
GTTGCAGGGG	1.08 ± 0.013
GTTGCAGTTC	1.01 ± 0.034
GTTGCGCGTC	1.03 ± 0.024
GTTGCGGTTG	0.986 ± 0.039
GTTGCTAGAG	1.006 ± 0.0035
GTTGCTAGTG	0.973 ± 0.024
GTTGCTTGCG	1 ± 0.02
GTTGGAAAGG	0.97 ± 0.039
GTTGGAATTG	0.992 ± 0.024
GTTGGACAGC	1.01 ± 0.023
GTTGGAGGA	1.04 ± 0.061
GTTGGAGGCT	0.989 ± 0.096
GTTGGAGTTT	0.975 ± 0.016
GTTGGATGCT	0.949 ± 0.028
GTTGGATTTG	0.994 ± 0.017
GTTGGCCGGC	1.11 ± 0.073
GTTGGCGACG	0.946 ± 0.012
GTTGGCTATT	0.984 ± 0.007
GTTGGGACGG	0.9569 ± 0.006
GTTGGGACGT	0.973 ± 0.013
GTTGGGCGGG	0.991 ± 0.035
GTTGGGGCAG	0.961 ± 0.034
GTTGGGGGGT	0.989 ± 0.02
GTTGGGTAGG	0.963 ± 0.028
GTTGGGTATT	1.01 ± 0.021

Sequence	switch fluorescence ratio
GTTGGGTTTG	0.999 ± 0.026
GTTGGGTTTT	1.02 ± 0.06
GTTGGTACTT	0.991 ± 0.02
GTTGGTATAG	1.01 ± 0.025
GTTGGTATTT	0.971 ± 0.023
GTTGGTCTGA	0.954 ± 0.022
GTTGGTGATT	0.9959 ± 0.0062
GTTGGTGGCG	1.02 ± 0.044
GTTGGTGGGT	0.98 ± 0.032
GTTGGTTAGG	0.959 ± 0.0071
GTTGTAAGGT	0.986 ± 0.034
GTTGTAGAGT	1.03 ± 0.032
GTTGTAGGGG	0.987 ± 0.024
GTTGTATCAC	0.9832 ± 0.0097
GTTGTCGGGT	1.05 ± 0.12
GTTGTCTAAT	0.9991 ± 0.0073
GTTGTGAGAG	0.999 ± 0.054
GTTGTGCAAT	1.16 ± 0.0012
GTTGTGCTGG	1.01 ± 0.018
GTTGTGGCTC	0.975 ± 0.036
GTTGTGGGGG	1.01 ± 0.049
GTTGTGGTTA	1.02 ± 0.015
GTTGTGTCGG	1.01 ± 0.019
GTTGTGTGGG	0.985 ± 0.035
GTTGTTACTG	1.02 ± 0.019
GTTGTTAGGG	1 ± 0.0046

Sequence	switch fluorescence ratio
GTTGTTCAAA	0.989 ± 0.015
GTTGTTGCTT	0.982 ± 0.029
GTTGTTGGGA	0.9898 ± 0.003
GTTGTTGGTG	1.01 ± 0.015
GTTGTTTAGT	0.994 ± 0.026
GTTGTTTCAG	0.969 ± 0.022
GTTGTTTTAA	1.05 ± 0.011
GTTTAAAATC	0.99757 ± 0.00014
GTTTAAATCC	0.989 ± 0.05
GTTTAAATTC	1 ± 0.08
GTTTAACGGT	1 ± 0.012
GTTTAAGGGC	0.988 ± 0.032
GTTTACGGGC	1.03 ± 0.027
GTTTATATGT	1.01 ± 0.049
GTTTCCAATC	1.02 ± 0.06
GTTTCCTGGG	1.03 ± 0.082
GTTTCGAGGT	0.96 ± 0.012
GTTTCGGGGA	1 ± 0.038
GTTTCTAGCT	0.969 ± 0.028
GTTTCTGGAG	1.03 ± 0.013
GTTTCTGGAT	0.98 ± 0.032
GTTTCTTTGG	1.06 ± 0.13
GTTTGAACGG	0.993 ± 0.018
GTTTGAGATA	0.971 ± 0.035
GTTTGAGCAC	1.02 ± 0.023
GTTTGAGGCT	1 ± 0.046

Sequence	switch fluorescence ratio
GTTTGAGTTT	0.996 ± 0.026
GTTTGATCTG	0.959 ± 0.026
GTTTGATGCG	0.995 ± 0.022
GTTTGCCAGG	1.01 ± 0.013
GTTTGCTGGG	0.983 ± 0.035
GTTTGGAGGA	0.96 ± 0.024
GTTTGGATAT	0.963 ± 0.01
GTTTGGATGC	0.963 ± 0.03
GTTTGGCATA	1.14 ± 0.19
GTTTGGCCGT	0.97 ± 0.035
GTTTGGGATA	0.992 ± 0.034
GTTTGGGGGG	1.04 ± 0.13
GTTTGTACCG	1 ± 0.051
GTTTGTACGT	0.975 ± 0.038
GTTTGTAGTT	0.968 ± 0.037
GTTTGTCACC	1.03 ± 0.034
GTTTGTGCT	0.988 ± 0.019
GTTTGTGTCA	0.993 ± 0.052
GTTTGTTACT	0.964 ± 0.052
GTTTGTTATC	0.98 ± 0.0057
GTTTTAAGGT	1.017 ± 0.0067
GTTTTAATTC	0.9628 ± 0.0036
GTTTTAGGAG	0.995 ± 0.043
GTTTTAGTAG	1.02 ± 0.015
GTTTTATAAA	0.9762 ± 0.0028
GTTTTATGAT	0.967 ± 0.016

Sequence	switch fluorescence ratio
GTTTTATTGT	0.955 ± 0.038
GTTTTATTTG	1.01 ± 0.025
GTTTTCAATT	0.983 ± 0.01
GTTTTCAGGG	1.02 ± 0.037
GTTTTCAGGT	0.992 ± 0.037
GTTTTCCGTC	1 ± 0.013
GTTTTCGGAT	0.983 ± 0.013
GTTTTCGGTT	1.013 ± 0.0056
GTTTTCTGGA	0.9988 ± 0.0057
GTTTTCTTGG	0.977 ± 0.013
GTTTTGGGAT	1.02 ± 0.031
GTTTTTAACT	1.012 ± 0.0075
GTTTTTAGAT	0.9709 ± 0.0092
GTTTTTATGA	0.973 ± 0.017
GTTTTTCCAG	0.9844 ± 0.0061
GTTTTTGTTA	0.991 ± 0.036
GTTTTTTAAG	0.9877 ± 0.0089
GTTTTTTGGG	1 ± 0.042
GTTTTTTTTT	1.02 ± 0.07
TAAAAAAAGG	1.05 ± 0.067
TAAAAAACCG	1.03 ± 0.025
TAAAAAAGAT	0.978 ± 0.017
TAAAAAAGGA	1.05 ± 0.12
TAAAAACGAC	1.04 ± 0.051
TAAAAACGGA	0.989 ± 0.042
TAAAAACGGG	1.05 ± 0.11

Sequence	switch fluorescence ratio
TAAAAACGTT	1.07 ± 0.086
TAAAAAGACG	1.04 ± 0.075
TAAAAAGGAC	0.9809 ± 0.008
TAAAAAGGAT	1.01 ± 0.02
TAAAAATACT	1.07 ± 0.11
TAAAAATTTG	1.07 ± 0.082
TAAAACAGGA	0.97 ± 0.017
TAAAACATTG	1.03 ± 0.015
TAAAACCAGT	1.04 ± 0.035
TAAAACCTAA	1.12 ± 0.25
TAAAACGGGG	1.02 ± 0.074
TAAAAGAGAT	1.04 ± 0.026
TAAAAGATGG	1.02 ± 0.019
TAAAAGGCGG	1.03 ± 0.029
TAAAAGGGCG	1.03 ± 0.012
TAAAAGGTAC	1.07 ± 0.07
TAAAAGGTGA	0.99 ± 0.029
TAAAAGTATG	0.969 ± 0.054
TAAAATGAGA	0.98 ± 0.031
TAAAATGCAT	0.979 ± 0.024
TAAAATGGAA	1.05 ± 0.1
TAAAATGGTG	1.01 ± 0.035
TAAAATTCGG	1.01 ± 0.018
